# Source: US20200199241A1 (Chugai, published 2020)
# T1: human FcγRIIa(H) (human, UniProt P12318 36-217)
# T1 construct: also called FcgRIIaH; hFcgRIIa(H)
# T1 sequence: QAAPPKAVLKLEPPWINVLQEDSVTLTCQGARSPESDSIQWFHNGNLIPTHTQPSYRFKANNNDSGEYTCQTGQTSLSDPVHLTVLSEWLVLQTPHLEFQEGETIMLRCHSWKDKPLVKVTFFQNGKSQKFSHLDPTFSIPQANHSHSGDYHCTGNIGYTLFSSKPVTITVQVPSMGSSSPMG
# T2: human FcγRIIa(R) (human, UniProt P12318 36-217)
# T2 construct: also called FcgRIIaR; hFcgRIIa(R)
# T2 chain: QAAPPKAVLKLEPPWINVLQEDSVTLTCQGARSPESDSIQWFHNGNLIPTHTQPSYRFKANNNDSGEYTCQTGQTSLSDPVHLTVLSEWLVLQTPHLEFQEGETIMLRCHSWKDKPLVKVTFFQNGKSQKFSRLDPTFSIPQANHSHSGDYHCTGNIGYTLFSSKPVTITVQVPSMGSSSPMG
# T3: human FcγRIIb (human, UniProt P31994 43-217, limits assumed)
# T3 construct: also called FcgRIIb; hFcgRIIb
# T3 sequence: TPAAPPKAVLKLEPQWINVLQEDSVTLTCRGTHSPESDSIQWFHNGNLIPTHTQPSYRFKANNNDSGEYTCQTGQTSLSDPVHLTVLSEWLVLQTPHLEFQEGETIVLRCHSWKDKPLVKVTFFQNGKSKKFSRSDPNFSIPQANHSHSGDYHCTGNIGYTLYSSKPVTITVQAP
# Tests used:
# Test in all cases: SPR, captured antibody;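 further: antibody captured on a sensor chip, Fcγ receptor flowed over at 25 °C, receptor binding normalized to the captured antibody amount and expressed relative to the reference antibody ×100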
# human FcγRIa = biological target: T4, human FcγRIa (human, UniProt P12314 16-292, limits assumed)
# T4 construct: also called FcgRIa; hFcgRIa
# T4 sequence (P12314 16-292 limits assumed): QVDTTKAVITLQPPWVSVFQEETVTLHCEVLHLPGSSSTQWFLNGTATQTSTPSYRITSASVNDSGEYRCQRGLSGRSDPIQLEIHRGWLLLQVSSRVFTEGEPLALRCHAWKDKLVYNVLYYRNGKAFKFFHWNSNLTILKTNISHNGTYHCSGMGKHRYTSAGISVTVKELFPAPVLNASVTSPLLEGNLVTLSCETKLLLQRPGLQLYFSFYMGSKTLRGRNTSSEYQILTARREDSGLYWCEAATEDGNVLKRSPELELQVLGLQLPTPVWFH
# human FcγRIIa(H) = biological target: T1, human FcγRIIa(H)
# human FcγRIIa(R) = biological target: T2, human FcγRIIa(R)
# human FcγRIIb = biological target: T3, human FcγRIIb
relative binding activity (human FcγRIa),relative binding activity (human FcγRIIa(H)),relative binding activity (human FcγRIIa(R)),relative binding activity (human FcγRIIb),Binder
60 % of GpH7-B3/GpL16-k0,1 % of GpH7-B3/GpL16-k0,0 % of GpH7-B3/GpL16-k0,-1 % of GpH7-B3/GpL16-k0,"GpH7-B3 P329S/GpL16-k0 (antibody, human IgG1, B3 variant; copies: 2 + 2) heavy: not shown light: DIVMTQSPLSLPVTPGEPASISCQASESLVHSNRNTYLHWYLQKPGQSPQLLIYKVSNRFSGVPDRFSGSGSGTDFTLKISRVEAEDVGVYYCSQNTHVPPTFGQGTKVEIE"
88 % of GpH7-B3/GpL16-k0,9 % of GpH7-B3/GpL16-k0,13 % of GpH7-B3/GpL16-k0,8 % of GpH7-B3/GpL16-k0,"GpH7-B3 P331G/GpL16-k0 (antibody, human IgG1, B3 variant; copies: 2 + 2) heavy: not shown light: DIVMTQSPLSLPVTPGEPASISCQASESLVHSNRNTYLHWYLQKPGQSPQLLIYKVSNRFSGVPDRFSGSGSGTDFTLKISRVEAEDVGVYYCSQNTHVPPTFGQGTKVEIE"
95 % of GpH7-B3/GpL16-k0,28 % of GpH7-B3/GpL16-k0,24 % of GpH7-B3/GpL16-k0,13 % of GpH7-B3/GpL16-k0,"GpH7-B3 P329V/GpL16-k0 (antibody, human IgG1, B3 variant; copies: 2 + 2) heavy: not shown light: DIVMTQSPLSLPVTPGEPASISCQASESLVHSNRNTYLHWYLQKPGQSPQLLIYKVSNRFSGVPDRFSGSGSGTDFTLKISRVEAEDVGVYYCSQNTHVPPTFGQGTKVEIE"
94 % of GpH7-B3/GpL16-k0,97 % of GpH7-B3/GpL16-k0,75 % of GpH7-B3/GpL16-k0,64 % of GpH7-B3/GpL16-k0,"GpH7-B3 S324K/GpL16-k0 (antibody, human IgG1, B3 variant; copies: 2 + 2) heavy: not shown light: DIVMTQSPLSLPVTPGEPASISCQASESLVHSNRNTYLHWYLQKPGQSPQLLIYKVSNRFSGVPDRFSGSGSGTDFTLKISRVEAEDVGVYYCSQNTHVPPTFGQGTKVEIE"
95 % of GpH7-B3/GpL16-k0,59 % of GpH7-B3/GpL16-k0,64 % of GpH7-B3/GpL16-k0,55 % of GpH7-B3/GpL16-k0,"GpH7-B3 P331R/GpL16-k0 (antibody, human IgG1, B3 variant; copies: 2 + 2) heavy: not shown light: DIVMTQSPLSLPVTPGEPASISCQASESLVHSNRNTYLHWYLQKPGQSPQLLIYKVSNRFSGVPDRFSGSGSGTDFTLKISRVEAEDVGVYYCSQNTHVPPTFGQGTKVEIE"
100 % of GpH7-B3/GpL16-k0,67 % of GpH7-B3/GpL16-k0,52 % of GpH7-B3/GpL16-k0,40 % of GpH7-B3/GpL16-k0,"GpH7-B3 Q295S/GpL16-k0 (antibody, human IgG1, B3 variant; copies: 2 + 2) heavy: not shown light: DIVMTQSPLSLPVTPGEPASISCQASESLVHSNRNTYLHWYLQKPGQSPQLLIYKVSNRFSGVPDRFSGSGSGTDFTLKISRVEAEDVGVYYCSQNTHVPPTFGQGTKVEIE"
15 % of GpH7-B3/GpL16-k0,0 % of GpH7-B3/GpL16-k0,0 % of GpH7-B3/GpL16-k0,-1 % of GpH7-B3/GpL16-k0,"GpH7-B3 S298P/GpL16-k0 (antibody, human IgG1, B3 variant; copies: 2 + 2) heavy: not shown light: DIVMTQSPLSLPVTPGEPASISCQASESLVHSNRNTYLHWYLQKPGQSPQLLIYKVSNRFSGVPDRFSGSGSGTDFTLKISRVEAEDVGVYYCSQNTHVPPTFGQGTKVEIE"
100 % of GpH7-B3/GpL16-k0,43 % of GpH7-B3/GpL16-k0,89 % of GpH7-B3/GpL16-k0,68 % of GpH7-B3/GpL16-k0,"GpH7-B3 S298G/GpL16-k0 (antibody, human IgG1, B3 variant; copies: 2 + 2) heavy: not shown light: DIVMTQSPLSLPVTPGEPASISCQASESLVHSNRNTYLHWYLQKPGQSPQLLIYKVSNRFSGVPDRFSGSGSGTDFTLKISRVEAEDVGVYYCSQNTHVPPTFGQGTKVEIE"
95 % of GpH7-B3/GpL16-k0,37 % of GpH7-B3/GpL16-k0,43 % of GpH7-B3/GpL16-k0,40 % of GpH7-B3/GpL16-k0,"GpH7-B3 Q295D/GpL16-k0 (antibody, human IgG1, B3 variant; copies: 2 + 2) heavy: not shown light: DIVMTQSPLSLPVTPGEPASISCQASESLVHSNRNTYLHWYLQKPGQSPQLLIYKVSNRFSGVPDRFSGSGSGTDFTLKISRVEAEDVGVYYCSQNTHVPPTFGQGTKVEIE"
94 % of GpH7-B3/GpL16-k0,0 % of GpH7-B3/GpL16-k0,1 % of GpH7-B3/GpL16-k0,0 % of GpH7-B3/GpL16-k0,"GpH7-B3 P329W/GpL16-k0 (antibody, human IgG1, B3 variant; copies: 2 + 2) heavy: not shown light: DIVMTQSPLSLPVTPGEPASISCQASESLVHSNRNTYLHWYLQKPGQSPQLLIYKVSNRFSGVPDRFSGSGSGTDFTLKISRVEAEDVGVYYCSQNTHVPPTFGQGTKVEIE"
99 % of GpH7-B3/GpL16-k0,74 % of GpH7-B3/GpL16-k0,56 % of GpH7-B3/GpL16-k0,41 % of GpH7-B3/GpL16-k0,"GpH7-B3 Q295N/GpL16-k0 (antibody, human IgG1, B3 variant; copies: 2 + 2) heavy: not shown light: DIVMTQSPLSLPVTPGEPASISCQASESLVHSNRNTYLHWYLQKPGQSPQLLIYKVSNRFSGVPDRFSGSGSGTDFTLKISRVEAEDVGVYYCSQNTHVPPTFGQGTKVEIE"
